Test results published in US10188739B2 (Xenetic Biosciences, Inc., priority 2014, dated 2019).
Where two headings read alike, the source gives them in different places.

Tests used:
[1] = design: species or system CD-1 mice; details: mouse, in vivo
Description: (§1) Male CD-1 mice of 8 to 9 weeks of age (18-20 g body weight) were acclimatized for 7 days before being enrolled into the study. Mice were weighed and dosed at 5 μL of dosing material per 20 g of body weight. […] Animals were anesthetized and held with the dorsal end facing down. Dosing materials were administered at a rate of ˜1 μL/10 seconds split equally through both nostrils. Total dosing time ranged from 1.8 to 2.3 minutes. After a nominal 10 minutes post-dose, animals were sacrificed followed by blood collection, perfusion, and tissue collection. The olfactory bulbs were included in the collection of the brain tissues. All tissues were stored at nominal −80° C. until assay. Perfusate contains: 1×PBS pH 7.4, +2.7% w/v BSA+100 U/mL heparin. […] Read plate at Ex/Em 635/675.

[2] = design: species or system CD-1 mice; details: mouse, in vivo, 10.5 mg/kg
Description: as §1, with “heparin. Lung/Liver/Kidney/Spleen. […] To evaluate recovery and matrix differences between the calibration matrices and study test samples, a spiking recovery experiment was performed (Table 2). […] The RFU correction factor was determined by dividing the response of each analyte spiked into BALB-c lysates (preparation procedures described below) by the response of each analyte spiked into CD-1 homogenate and then extracted. For kidney and liver matrices, there was enough material available to evaluate spiking recovery at two different levels.” for “heparin.”, “635/675 4. […]” for “635/675.”

Substance: Sialong: polysialyated insulin conjugate by N-terminal (B-chain) aldehyde conjugation using 15 kDa CAO; tested labelled with AF-647 (Sialong^AF647)
- Plasma % Dose ([1]; 2.1 mg/kg): 0.0 % Dose
- Plasma % Dose ([1]; 10.5 mg/kg): 0.01 % Dose
- Lung % Dose [2]: 0.01 % Dose
